Here are results for 1 molecule from patent US20230330254A1 (Regeneron, published 2023).

Common to all, as to test: cell-based or functional assay
For assay [1], the target named is T1, full-length human GLP1R on HEK293/CRE-Luc/hGLP1R cells (human, UniProt P43220 24-463).
Assay [2] has as its target Myc-tagged full length human GLP1R on HEK293/Myc-hGLP1R/Cre-Luc cells (human, UniProt P43220 24-463).
For assay [3], the target named is T1, full-length human GLP1R on …. This is another data set of the same source.
The target is the same in assay [4]. The source holds these as a separate data set.
Assay [5] has the same target. This is another data set of the same source.
In assay [6] the target is T2, full-length cynomolgus GLP1R on HEK293/CRE-Luc/mfGLP1R cells (cynomolgus, UniProt F8V479 24-463).
Assay [7] addresses T3, full-length human glucagon-like peptide 2 receptor on HEK293/CRE-Luc/hGLP2R cells (human, UniProt O95838 1-553).
T3 sequence (looked up): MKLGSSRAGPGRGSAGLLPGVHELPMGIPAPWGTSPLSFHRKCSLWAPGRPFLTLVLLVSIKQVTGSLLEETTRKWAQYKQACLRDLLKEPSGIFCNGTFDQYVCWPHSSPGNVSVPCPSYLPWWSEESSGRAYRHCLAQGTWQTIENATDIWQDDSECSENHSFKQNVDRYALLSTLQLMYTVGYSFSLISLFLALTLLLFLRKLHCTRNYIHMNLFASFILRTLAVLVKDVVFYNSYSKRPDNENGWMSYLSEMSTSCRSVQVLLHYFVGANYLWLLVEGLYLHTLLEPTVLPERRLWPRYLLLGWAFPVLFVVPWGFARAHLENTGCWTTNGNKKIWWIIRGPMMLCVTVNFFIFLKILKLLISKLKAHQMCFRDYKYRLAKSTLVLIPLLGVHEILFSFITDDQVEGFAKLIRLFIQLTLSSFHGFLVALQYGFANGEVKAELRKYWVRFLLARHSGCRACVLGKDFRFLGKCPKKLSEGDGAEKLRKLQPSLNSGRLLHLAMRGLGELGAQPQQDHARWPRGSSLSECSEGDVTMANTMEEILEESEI

Assay [8] concerns the target T4, full-length human glucagon receptor on HEK293/CRE-Luc/hGCGR cells (human, UniProt P47871 26-477).
Assay [9] addresses T5, full-length human gastric inhibitory polypeptide receptor on HEK293/CRE-Luc/hGIPR cells (human, UniProt P48546 22-466).
T5 sequence (looked up): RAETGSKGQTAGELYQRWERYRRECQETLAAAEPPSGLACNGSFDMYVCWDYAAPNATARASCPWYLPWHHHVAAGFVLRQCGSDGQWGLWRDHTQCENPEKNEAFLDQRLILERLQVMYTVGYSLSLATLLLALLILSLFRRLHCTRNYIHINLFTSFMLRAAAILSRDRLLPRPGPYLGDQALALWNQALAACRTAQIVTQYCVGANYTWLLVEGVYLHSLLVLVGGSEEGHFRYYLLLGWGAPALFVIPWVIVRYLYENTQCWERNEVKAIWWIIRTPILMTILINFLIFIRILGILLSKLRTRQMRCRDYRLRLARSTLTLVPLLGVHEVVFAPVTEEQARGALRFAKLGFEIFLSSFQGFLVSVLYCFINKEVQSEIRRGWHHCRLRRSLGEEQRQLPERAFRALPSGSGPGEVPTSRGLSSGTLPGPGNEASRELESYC

In assay [10] the target is T1, full-length human GLP1R on …. The source holds these as a separate data set.
In assay [11] the target is T2, full-length cynomolgus GLP1R on …. The source holds these as a separate data set.
The target in assay [12] is T3, full-length human glucagon-like peptide …. The source holds these as a separate data set.
The target in assay [13] is T4, full-length human glucagon receptor on …. The source holds these as a separate data set.
For assay [14], the target named is T5, full-length human gastric inhibitory …. This is another data set of the same source.
Assay [15] addresses human GLP1R on PathHunter eXpress GLP1R CHO-K1 b-Arrestin GPCR cells (human, UniProt P43220 24-463).
The target of assay [16] is T1, full-length human GLP1R on …. The source holds these as a separate data set.

Read-outs that look alike come from different tables or passages of the source.

T4 sequence (P47871 26-477): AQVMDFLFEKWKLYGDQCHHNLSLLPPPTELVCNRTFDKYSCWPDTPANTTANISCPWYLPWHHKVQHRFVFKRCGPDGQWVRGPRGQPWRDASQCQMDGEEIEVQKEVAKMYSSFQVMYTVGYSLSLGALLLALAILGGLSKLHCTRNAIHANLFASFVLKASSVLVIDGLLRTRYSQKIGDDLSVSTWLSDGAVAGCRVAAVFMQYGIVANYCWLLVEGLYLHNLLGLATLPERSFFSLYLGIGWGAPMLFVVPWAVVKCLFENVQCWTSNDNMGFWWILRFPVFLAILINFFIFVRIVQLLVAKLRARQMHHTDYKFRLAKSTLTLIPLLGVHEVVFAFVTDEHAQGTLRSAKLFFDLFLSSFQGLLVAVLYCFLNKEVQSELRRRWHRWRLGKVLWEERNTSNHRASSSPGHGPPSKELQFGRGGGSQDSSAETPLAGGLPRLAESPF

B1: GLP1R agonist linker-payload LP11 (NH2-PEG8-triazole-P8) (peptide)
peptide: XXGTXTSDXX
modifications: CapAib-E*-G-T-F*-T-S-D-AA2-AA1: CapAib = 3-((2-(1H-imidazol-5-yl)ethyl)amino)-2,2-dimethyl-3-oxopropanoic acid; E* = (S)-2-amino-3-(2H-tetrazol-5-yl)propanoic acid; F* = (S)-2-amino-3-(2-fluorophenyl)-2-methylpropanoic acid; AA2 = biphenylalanine derivative carrying the amino-PEG8-triazole linker; AA1 = (S)-2-amino-5-(3,5-dimethylphenyl)pentanamide
Take B1: the “cAMP EC50” value in assay [1] came out at 0.318 nM. Moreover, the “CRE-luc EC50” value in [2] was 0.016 nM; in [4] it was 0.0369 nM; in assay [5], 0.0258 nM; in [6], 0.0463 nM; in [7] it was above 200 nM; in assay [8] it was above 200 nM. The “CRE-luc EC50” value in assay [9] is above 200 nM; in assay [10] it was 0.0601 nM; in [11], 0.202 nM; in [12], above 30 nM; in assay [13], above 30 nM; in assay [14], above 30 nM. In assay [16], the “CRE-luc EC50” value is 0.0168 nM. For the same molecule, the “CRE-luc EC50 (experiment A)” value in [3] turned out to be 0.0161 nM. Also, in [3], the “CRE-luc Relative Potency (% P8 EC50) (experiment A)” value was found to be 33.1%. Moreover, the “CRE-luc S/N (experiment A)” value in [3] stood at 74.5 fold. Besides, the “CRE-luc Relative Potency (% M2361 EC50)” value in assay [4] was found to be 44%. Besides, the “CRE-luc Relative Signal:Noise (% M2361)” value in assay [4] turned out to be 96.4%. For the same molecule, the “CRE-luc S/N” value in assay [4] came out at 62 fold. For the same molecule, the “b-arrestin 2 recruitment EC50” value in assay [15] stood at 2.48 nM. In assay [15], the “b-arrestin 2 recruitment Emax (% GLP-1)” value was found to be 108%. Also, the “CRE-luc Emax (% GLP-1)” value in assay [16] was 93.9%.
